The values that follow come from paper PMC2635752.

Experiment [1] has as its target growth-associated protein GAP-43 (mouse (endogenous in N1E-115)) (UniProt P06837). In words: cross-linking + co-IP; 1 mM DSP added to living [35S]-labeled differentiated N1E-115 cells (15 min, room temperature, KRH); lysis in SDS, then NP-40 lysis buffer; 100,000 × g supernatant; monoclonal anti-GAP-43 (clone 91E12) and protein G plus agarose; crosslinks cleaved; two-dimensional gel, fluorography; spots cut out and counted, calmodulin cpm divided by 9/4.

Experiment [2] shares this target. Kind of experiment: cross-linking + co-IP; cells lysed in 1% NP-40 substitute buffer first; 1 mM DSP added to the low-speed supernatant (15 min, room temperature); glycine and SDS added; 100,000 × g supernatant; monoclonal anti-GAP-43; two-dimensional gel; spots counted, calmodulin cpm divided by 9/4.

Chain of UniProt P06837 (P06837 whole entry): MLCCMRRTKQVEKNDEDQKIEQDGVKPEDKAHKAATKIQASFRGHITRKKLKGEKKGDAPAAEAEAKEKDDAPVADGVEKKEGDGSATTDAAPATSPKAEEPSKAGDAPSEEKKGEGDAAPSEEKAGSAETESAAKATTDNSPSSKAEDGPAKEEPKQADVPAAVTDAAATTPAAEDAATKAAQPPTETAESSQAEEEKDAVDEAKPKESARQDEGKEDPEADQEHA

For “calmodulin (from UniProt P0DP26 1-149) (natural protein)”, in experiment [1], the calmodulin as percent of the GAP-43 in the immunoprecipitate was 14%, the percent of the total GAP-43 crosslinked to calmodulin worked out at 25% and the radioactivity of calmodulin in the anti-GAP-43 immunoprecipitate (divided by 9/4) amounted to 278 cpm. For the same substance, in experiment [2], the calmodulin as percent of the GAP-43 in the immunoprecipitate was 39% and the radioactivity of calmodulin in the anti-GAP-43 immunoprecipitate (divided by 9/4) turned out to be 643 cpm.
